The conditions of data set [1]: in situ brain perfusion; threshold definition of efficient transport; cited from earlier work.
In the next data set the test system is ob/ob mice. Nature of the data set: body weight of ob/ob mice treated with recombinant leptin. The format is in vivo. The conditions noted are these: 0.1 mg/mouse or 0.25 mg/mouse daily, FIG. 21. How it is done: As a control, we tested the ability of recombinant leptin to reduce body weight in ob/ob mice using either 0.1 mg/mouse or 0.25 mg/mouse daily.
Data set [2] can be described thus: in situ perfusion assay in lean and diet-induced obese (DIO) mice. The data set is classed as in vivo. The conditions noted are these: DIO mice compared with lean mice; FIG. 4A. An excerpt: Blood Flow Metab. 20(2):381-386.

As to “T F F Y G G S R G K R N N F R T E E Y (TFFYGGSRGKRNNFRTEEY) [Angiopep-6]”, in data set [1], the “transport across the BBB relative to that of Angiopep-1 (250 nM)” value is reported as 38.5%.

B1: leptin: recombinant leptin used as control and comparator in Example 5 (protein, UniProt P41160 22-167, looked up)
Leptin: VPIQKVQDDTKTLIKTIVTRINDISHTQSVSAKQRVTGLDFIPGLHPILSLSKMDQTLAVYQQVLTSLPSQNVLQIANDLENLRDLLHLLAFSKSCSLPQTSGLQKPESLDGVLEASLYSTEVVALSRLQGSLQDILQQLDVSPEC
B1: the body weight entry in the data set on ob/ob mice is “reduce body weight in these mice in a dose-dependent manner”. Also, in data set [2], the “transport across the BBB in DIO mice versus lean mice” value is listed as “reduced as compared to in lean mice”.

The record behind these values is patent US20110288009A1, “LEPTIN AND LEPTIN ANALOG CONJUGATES AND USES THEREOF” (Angiochem Inc., priority 2008, published 2011).
